# T1: 6×His-MBP-Raf1 (S. pombe, UniProt O74910 1-638)
# T1 construct: Raf1 (Rik1-associated factor 1, DDB2 homolog), S. pombe; Expressed from one bacmid with Raf2, Rik1 and Cul4 and purified with them; A TEV site lies between MBP and Raf1; also called Raf1-MBP; Raf1 (DDB2 homolog); source: Hi5 insect cells (baculovirus), purified (Ni-NTA, amylose, SEC) together with Raf2, Rik1 and Cul4; not shown: His6, N-terminal, kept; MBP, N-terminal, kept
# T1 sequence (looked up): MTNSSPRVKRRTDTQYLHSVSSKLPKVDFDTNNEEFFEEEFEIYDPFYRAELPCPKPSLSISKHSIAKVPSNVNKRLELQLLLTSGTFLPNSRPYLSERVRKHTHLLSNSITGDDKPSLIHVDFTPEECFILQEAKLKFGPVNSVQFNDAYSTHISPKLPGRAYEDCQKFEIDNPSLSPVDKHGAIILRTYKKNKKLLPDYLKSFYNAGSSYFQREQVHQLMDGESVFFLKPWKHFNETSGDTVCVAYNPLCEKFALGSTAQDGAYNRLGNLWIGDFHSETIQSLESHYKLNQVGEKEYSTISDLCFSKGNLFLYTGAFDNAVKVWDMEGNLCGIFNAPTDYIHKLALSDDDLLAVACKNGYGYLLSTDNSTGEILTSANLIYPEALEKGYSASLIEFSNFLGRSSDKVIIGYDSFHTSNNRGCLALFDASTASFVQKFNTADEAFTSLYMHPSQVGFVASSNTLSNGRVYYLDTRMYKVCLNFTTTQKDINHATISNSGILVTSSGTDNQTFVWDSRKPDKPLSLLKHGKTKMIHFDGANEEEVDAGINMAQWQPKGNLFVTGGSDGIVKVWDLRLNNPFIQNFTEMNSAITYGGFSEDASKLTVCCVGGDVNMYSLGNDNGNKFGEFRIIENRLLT
# Tests used:
# 6×His-MBP-Raf1 = target: T1, 6×His-MBP-Raf1; test: pull-down; MBP-Raf1 held on amylose resin and incubated with Clr4 FL or fragments (legend: 'MBP pulldown assays of CLRC subunits'); 1:1 molar ratio, 30 min on ice, resin 1 h at 4 °C; wash 20 mM HEPES pH 7.5, 150 mM NaCl, 0.02% Triton X-100; SDS-PAGE; details: both partners purified
# [1] = target: T2, CLRC complex lacking Clr4 (CLRC^-Clr4): 6×His-MBP-Raf1, Raf2, Rik1 and Cul4 (S. pombe, UniProt O74910 1-638; O74560 1-636; Q10426 1-1040; O14122 1-734); test: as above; details: both partners purified
# T2 construct: Raf1 (DDB2 homolog), S. pombe; as the chain of m2; Raf2, S. pombe; as the chain of m3; Rik1 (DDB1 homolog), S. pombe; as the chain of m4; Cullin 4, S. pombe; as the chain of m5; also called four-subunit CLRC complex; CLRC minus Clr4; source: Hi5 insect cells (baculovirus, single bacmid), purified (Ni-NTA, amylose, SEC on Superose 6 Increase); not shown: His6, N-terminal, kept; MBP, N-terminal, …
# T2 sequence (O74560 whole entry, chain 2 of 3): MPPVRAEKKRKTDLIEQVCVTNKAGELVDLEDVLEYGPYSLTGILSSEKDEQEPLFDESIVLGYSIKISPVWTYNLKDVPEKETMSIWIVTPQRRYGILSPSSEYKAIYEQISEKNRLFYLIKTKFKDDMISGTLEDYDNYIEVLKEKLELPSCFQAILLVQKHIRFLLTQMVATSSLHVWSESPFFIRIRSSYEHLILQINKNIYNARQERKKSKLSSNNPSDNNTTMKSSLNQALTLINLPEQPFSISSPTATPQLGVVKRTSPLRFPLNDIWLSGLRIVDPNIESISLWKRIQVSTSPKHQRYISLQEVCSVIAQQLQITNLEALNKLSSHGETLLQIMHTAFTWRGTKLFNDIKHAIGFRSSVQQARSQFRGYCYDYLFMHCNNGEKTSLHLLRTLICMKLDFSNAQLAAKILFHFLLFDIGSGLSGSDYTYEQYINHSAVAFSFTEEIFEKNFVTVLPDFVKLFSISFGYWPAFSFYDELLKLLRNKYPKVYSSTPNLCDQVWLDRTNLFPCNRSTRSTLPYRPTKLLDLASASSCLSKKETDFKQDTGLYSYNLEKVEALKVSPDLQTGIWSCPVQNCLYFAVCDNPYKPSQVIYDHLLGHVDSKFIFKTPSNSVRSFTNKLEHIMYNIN
# T2 sequence (Q10426 whole entry, chain 3 of 3): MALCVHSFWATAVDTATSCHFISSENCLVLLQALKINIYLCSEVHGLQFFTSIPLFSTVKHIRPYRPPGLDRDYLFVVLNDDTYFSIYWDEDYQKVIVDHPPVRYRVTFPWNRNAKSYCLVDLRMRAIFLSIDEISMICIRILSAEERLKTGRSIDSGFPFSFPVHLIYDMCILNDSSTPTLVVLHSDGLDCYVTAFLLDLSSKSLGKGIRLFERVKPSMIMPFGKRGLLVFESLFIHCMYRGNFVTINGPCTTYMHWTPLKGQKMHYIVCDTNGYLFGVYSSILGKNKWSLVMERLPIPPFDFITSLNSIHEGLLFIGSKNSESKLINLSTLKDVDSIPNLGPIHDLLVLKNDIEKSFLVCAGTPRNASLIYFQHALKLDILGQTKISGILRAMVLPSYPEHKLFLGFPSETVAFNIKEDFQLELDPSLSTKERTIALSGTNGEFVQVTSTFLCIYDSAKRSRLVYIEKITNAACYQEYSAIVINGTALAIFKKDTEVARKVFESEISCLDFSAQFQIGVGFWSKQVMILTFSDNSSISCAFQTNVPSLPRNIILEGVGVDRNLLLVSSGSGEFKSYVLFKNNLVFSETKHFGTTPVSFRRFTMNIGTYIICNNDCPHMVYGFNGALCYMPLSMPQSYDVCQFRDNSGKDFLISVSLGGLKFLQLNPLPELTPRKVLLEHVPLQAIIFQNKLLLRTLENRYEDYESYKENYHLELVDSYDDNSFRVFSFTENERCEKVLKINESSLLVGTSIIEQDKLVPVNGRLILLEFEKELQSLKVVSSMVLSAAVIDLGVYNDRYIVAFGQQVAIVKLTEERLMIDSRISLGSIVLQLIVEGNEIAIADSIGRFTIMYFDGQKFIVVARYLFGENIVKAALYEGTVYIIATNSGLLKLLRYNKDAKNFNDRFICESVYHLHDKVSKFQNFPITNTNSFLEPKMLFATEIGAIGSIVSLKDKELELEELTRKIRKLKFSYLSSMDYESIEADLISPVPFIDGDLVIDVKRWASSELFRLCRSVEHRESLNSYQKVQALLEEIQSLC
# T2 sequence (O14122 whole entry, chain 4 of 3): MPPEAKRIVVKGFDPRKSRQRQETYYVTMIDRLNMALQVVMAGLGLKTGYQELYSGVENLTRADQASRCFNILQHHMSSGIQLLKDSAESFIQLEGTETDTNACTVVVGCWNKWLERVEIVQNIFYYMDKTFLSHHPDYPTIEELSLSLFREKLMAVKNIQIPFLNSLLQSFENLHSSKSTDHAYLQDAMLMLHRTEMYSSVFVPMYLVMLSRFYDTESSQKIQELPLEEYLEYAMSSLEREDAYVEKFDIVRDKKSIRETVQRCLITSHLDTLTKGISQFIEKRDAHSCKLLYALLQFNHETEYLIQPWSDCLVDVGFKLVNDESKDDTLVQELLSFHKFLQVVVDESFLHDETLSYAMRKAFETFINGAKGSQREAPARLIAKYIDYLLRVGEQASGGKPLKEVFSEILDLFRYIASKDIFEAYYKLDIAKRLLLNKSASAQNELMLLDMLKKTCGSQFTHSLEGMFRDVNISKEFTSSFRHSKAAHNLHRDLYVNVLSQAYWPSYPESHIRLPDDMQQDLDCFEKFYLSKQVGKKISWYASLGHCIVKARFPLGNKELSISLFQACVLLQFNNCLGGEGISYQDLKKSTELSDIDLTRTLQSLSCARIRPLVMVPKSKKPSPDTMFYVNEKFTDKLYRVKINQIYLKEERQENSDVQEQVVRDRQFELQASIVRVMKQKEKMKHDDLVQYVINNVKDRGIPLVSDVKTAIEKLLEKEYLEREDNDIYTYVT
binding result (6×His-MBP-Raf1),binding result [1],Binder
binds,,"Clr4 ΔSET (amino acids 1–192) (domain or fragment, S. pombe, UniProt O60016 1-192, looked up, Clr4, S. pombe, chromodomain and hinge region, amino acids 1-192; also called GST-Clr4 ΔSET) MSPKQEEYEVERIVDEKLDRNGAVKLYRIRWLNYSSRSDTWEPPENLSGCSAVLAEWKRRKRRLKGSNSDSDSPHHASNPHPNSRQKHQHQTSKSVPRSQRFSRELNVKKENKKVFSSQTTKRQSRKQSTALTTNDTSIILDDSLHTNSKKLGKTRNEVKEESQKRELVSNSIKEATSPKTSSILTKPRNPS"
binds,binds,"Clr4N-Set2 (Clr4 chromodomain-hinge fused to the SET domain of S. pombe Set2) (other, UniProt O60016 1-192, looked up, Clr4, S. pombe, chromodomain and hinge region, amino acids 1-192 (GST-Clr4 ΔSET); Set2 H3K36 methyltransferase, S. pombe, SET domain, amino acids 90-330, fused to the C-terminus of Clr4 ΔSET; also called GST-Clr4 CD-Hinge-Set2; GST-Clr4N-Set2) MSPKQEEYEVERIVDEKLDRNGAVKLYRIRWLNYSSRSDTWEPPENLSGCSAVLAEWKRRKRRLKGSNSDSDSPHHASNPHPNSRQKHQHQTSKSVPRSQRFSRELNVKKENKKVFSSQTTKRQSRKQSTALTTNDTSIILDDSLHTNSKKLGKTRNEVKEESQKRELVSNSIKEATSPKTSSILTKPRNPSLFHHLDSAKDKALTTFEEIQECQYASANIGKPPENEAMICDCRPHWVDGVNVACGHGSNCINRMTSIECTDEDNVCGPSCQNQRFQRHEFAKVDVFLTEKKGFGLRADANLPKDTFVYEYIGEVIPEQKFRKRMRQYDSEGIKHFYFMMLQKGEYIDATKRGSLARFCNHSCRPNCYVDKWMVGDKLRMGIFCKRDIIRGEELTFDYNVDRYGAQAQPCYCGEPCCVGYIGGKTQTEAQSK"
